Measured values published in patent US20150315270A1 (CONSEJO NACIONAL DE INVESTIGATION CIENTIFICA, published 2015).

T1: human VEGF-B186 (human, UniProt P49765 22-207)
T1 construct: also called Vascular endothelial growth factor antigen B
T1 sequence: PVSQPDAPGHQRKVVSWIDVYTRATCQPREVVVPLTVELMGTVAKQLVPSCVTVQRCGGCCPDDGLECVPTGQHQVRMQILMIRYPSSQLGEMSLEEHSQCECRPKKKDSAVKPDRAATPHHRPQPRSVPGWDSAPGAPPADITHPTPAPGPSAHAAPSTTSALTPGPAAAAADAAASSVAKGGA

T2: mouse VEGF-A (mouse, UniProt Q00731-2 27-190, limits assumed)
T2 sequence (looked up): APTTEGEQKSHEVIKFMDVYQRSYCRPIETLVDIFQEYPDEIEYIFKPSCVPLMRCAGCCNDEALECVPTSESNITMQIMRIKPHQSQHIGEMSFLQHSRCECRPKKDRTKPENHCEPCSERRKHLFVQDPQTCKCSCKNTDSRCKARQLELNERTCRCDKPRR

B1: mMcA-AB1-anti-VEGF-A (mouse monoclonal antibody A-AB1-anti-VEGF-A) (antibody, V domains shown)
VH: QVKLLESGPELKKPGETVKISCKASGYTFTNFGMNWVKQAPGKGLKWMGWINTNTGEPTYVDDFKGRFAFSLETSASSAYLQISNLNNEDTATYFCARYYGSTSVWYFDVWGAGTTVTVSS
VL: ELVMTQTPSSLSASLGDRVTITCRASQDIFNYLNWYQQKPDGPIKLLIYYSSRLHSGVPSRFSGSGSGTDYSLTISNLDREDIATYFCQQGFTLPWTFGGGTKLEIKR
notes: also called mMc-AB1-anti-VEGF-A; mouse AB1 antibody
B2: hMcA-AB1-anti-VEGF-A (humanized monoclonal antibody A-AB1-anti-VEGF-A) (antibody, human IgG1, V domains shown)
VH: QVQLVQSGSELKKPGASVKVSCKASGYTFTNFGMNWVRQAPGQGLEWMGWINTNTGEPTYVDDFKGRFVFSLDTSVSTAYLQISSLKAEDTAVYYCARYYGSTSVWYFDVWGRGTLVTVSS
VL: DIQMTQSPSSLSASVGDRVTITCRASQDIFNYLNWYQQKPGKAPKLLIYYSSRLHSGVPSRFSGSGSGTDFTFTISSLQPEDIATYYCQQGFTLPWTFGQGTKVEIKR
notes: The constant regions come from the vectors pFUSE-CHIg-hG1 (human IgG1 heavy) and pFUSE2-CLIg-hk (human kappa light); also called hMcA-AB1-VEGF-A; humanized mMc-AB1-anti-VEGF-A

Columns and labels:
[1] = target: T1, human VEGF-B186; experiment: SPR, Biacore T100, antibody (6.30-0.18 uM) injected over immobilized VEGF-B186 (4000 RU), 1:1 model
Experimental: KA and KD respectively, were determined by kinetic analysis fitting a 1:1 interaction model using biacore T100 Evaluation software.

[2] = target: T3, human VEGF-A165 (human, UniProt P15692 207-395); experiment: SPR, Biacore T100, kinetic analysis, 1:1 model
T3 construct: also called VEGF165; human recombinant VEGF165

[3] = target: T3, human VEGF-A165; experiment: cell-based or functional assay
[4] = target: T2, mouse VEGF-A; experiment: ELISA and SPR
[5] = target: T3, human VEGF-A165; experiment: SPR, BIAcore T100, kinetic analysis, 1:1 model
Experimental: Affinity and Dissociation Constants, KA and KD, respectively, were determined by kinetic analysis fitting a 1:1 interaction model using the BIAcore T100 evaluation software.

| Binder | koff [1] [s⁻¹] | kon [1] [M⁻¹ s⁻¹] | Kd [2] [nM] | koff [2] [s⁻¹] | kon [2] [M⁻¹ s⁻¹] | IC50, HUVEC proliferation assay [3] [µg/mL] | IC50 in the HUVEC proliferation assay against that of bevacizumab [3] [fold lower] | binding result [4] | Ka [5] [M⁻¹] | Kd [5] [nM] | koff [5] [s⁻¹] | kon [5] [M⁻¹ s⁻¹] |
| --- | --- | --- | --- | --- | --- | --- | --- | --- | --- | --- | --- | --- |
| B1 | 0.00571 | 32800 | 0.0053 | 9.9e-05 | 1.87e+07 | ~0.011 | 5 | no binding |  |  |  |  |
| B2 |  |  |  |  |  | ~0.019 | 3 | no binding | 9.24e+09 | 0.109 | 0.000421 | 3.83e+06 |
